In the DeepSol protein solubility set:

assay: soluble on expression in E. coli; label from the status in PepcDB or PDB records

Row | Sequence | soluble on expression in E. coli
1 | MDPVFSRLLETANSVILGKEQPIRLCICCLLARGHLLIEDVPGVGKTTLARTLAALLGLKYQRIQFTSDLLPADVLGSSIYDATTHGFRFHPGPVFNPMVLADEINRSTPRAQSALLEAMEERQVTVEGETRPLPEPFFVIATQNPNTQIGTFPLPESQLDRFLMRIELGYPDPRAERELLMGEERYALLPQLPVCLPAERLLALQSRVRDVHASSALLDYVQALLHFSRESPLYQNGLSPRAGLALLHAAKAWALMDGRAAVLPEDIQAVLPPVAGHRLKLASGGGGMAETVAPLLRDVAIPLEHHHHHH | not soluble
2 | MSLKILFASSESYPFIKTGGLGDVSYALPKALRKIGIDARVIIPKYSDIPEYFRYNTHHIASFGVPVGWRSQYGGLEYYEYDGVPFYFIDNDYYFKRSGLYGYYDDGERFAYFSRGVLQAITYMQDFNPDIIQCNDWQTAIIPVLLKDHYRNYRNYNHIKTIFTIHNLKYQGVFGKSVLGELLCLNEGYYNENALKFYDGISFMKGGILFSDKLSTVSRTYAEEIKDPYYGEHLDGLLRSRSYDLWGIVNGIDYDILNPETDKDLFFNFDSSTLYNKTKNKIELQKMLNLPVSENIPMIGIVSRLVSQKGLDLISCVLEDLLQDGIQLVVLGTGDAKYENMFKYFAWKYPNKLSANIQFNNSLAQKIYGASDMFLMPSKFEPCGIGQLIALRYGSLPIVRETGGLKDTVRPFNPITGEGNGFSFTNYNAHDMLHVIRNAEYFYYNEKYNWNKLVQTAMNDDNSWSKSAEIYRNLYMSVLEGHHHHHH | not soluble
3 | MSLTTIKTSNLGFPRIDLNREWKKALEAYWKGSTDKDTFLKQIDELFLSAVKTQIDQQIDVVPVSDFTQYDHVLDTAVSFNWIPKRFRHLTDATDTYFAIARGIKDAVSSEMTKWFNTNYHYIVPEYDESIEFRLTRNKQLEDYRRIKQEYGVETKPVIVGPYTFVTLAKGYEPSEAKAIQKRLVPLYVQLLKELEEEGVKWVQIDEPALVTASSEDVRGAKELFESITSELSSLNVLLQTYFDSVDAYEELISYPVQGIGLDFVHDKGRNLEQLKTHGFPTDKVLAAGVIDGRNIWKADLEESLDAVLDVLSIAKVDELWIQPSSSLLDVPVAKHPDEHLEKDLLNGLSYAKEKLAELTALKEGLVSGKAAISEEIQQAKADIQALKQFATGANSEQKKELEQLTDKDFKRPIPFEERLALQNESLGLPLLPTTTIGSFPQSAEVRRARQKWRKAEWSDEQYQNFINAETKRWIDIQEELELDVLVHGEFERTDMVEYFGEKLAGFAFTKYAWVQSYGSRCVRPPVIYGDVEFIEPMTVKDTVYAQSLTSKHVKGMLTGPVTILNWSFPRNDISRKEIAFQIGLALRKEVKALEDAGIQIIQVDEPALREGLPLKTRDWDEYLTWAAEAFRLTTSSVKNETQIHTHMCYSNFEDIVDTINDLDADVITIEHSRSHGGFLDYLKNHPYLKGLGLGVYDIHSPRVPSTEEMYNIIVDALAVCPTDRFWVNPDCGLKTRQQEETVAALKNMVEAAKQARAQQTQLVEGGSHHHHHH | soluble
4 | AGTGVVSVQFNNGSSPASSNSIYARFKVTNTSGSPINLADLKLRYYYTQDADKPLTFWCDHAGYMSGSNYIDATSKVTGSFKAVSPAVTNADHYLEVALNSDAGSLPAGGSIEIQTRFARNDWSNFDQSNDWSYTAAGSYMDWQKISAFVGGTLAYGSTP | soluble
5 | MGSDKIHHHHHHMAGATLLTSSCNDWLDVLPKNEQVSPEYWKTKEQVEEVLAQGYQNMRLTVPTLIYWGELRGASIYAYSGKSKQELQNFQLNSSSGECKWGGFYSILNVANSIIKYAPEVKRQDETYHEAVMNSNMAEAYFMRAWTYFTLVRNFKEVPLILEPYMTDEYAVDIPKSSEETIIAQIKLDIENALSTGAAKEMYDDEDWTGMSKGRVTVWALYALMADVCLWSEDYDGCVRYADMLINSTSAFRPAFVEDPEQWYNIFFPGNSNGSIFELNFDQSRNQSPDDDATASTYPSPSNVYPWTQSTVASLQFSNAMCKRLFDEQTDQWVTSNTVRGYGNTFVLSSGTVIGNSNTEGYLPFKFRIGGKDGLSTTRSYKDANWILYRMADVLLMKAEALIWKGGEANFAQALELINKIRTRANVTTLSVQTNAVSQENMLGYLLQERDLEFAAEGKRWYDLLRFGRSQNFKYKDQFINMIIENNSTVSASWIRSVLKNTDAWYLPISQGEIDSNPNLIQNPYYDVTAN | not soluble
6 | TDQFGMIGLLTFIRAAETDPGMVHLALGSDLTTLGLNLNSPENLYPKFASPWASSPCRPQDIDFHVPSEYLTNIHIRDKLAAIKLGRYGEDLLFYLYYMNGGDVLQLLAAVELFNRDWRYHKEERVWITRAPGMEPTMKTNTYERGTYYFFDCLNWRKVAKEFHLEYDKLEERPHLPSTFNYNPAQQAF | soluble
7 | MSLDTDREQILAEFLSIDRTKVRRIEHHRCHAAYSYYASKYRNKPILALTVDGWGDGKDATIGIFDEKGKYSRVYESDQCAIGRIYRYMTLMLGMKPNEHEFKVMGLAPYGKETHAKKALDILRNTLYVDGEEFKWKEKPKDSYFWFKERFEGVRFDNIAFALQKWTEELLVEWVKNAINKYKIHDIVISGGVAMNIKAMGKIADLPEVKSLFIGGSASDESMAISSGICLAEDLTKESSREWNSNTIESLTRLYLGPSASLKEEERVVDGLDKKKFEIIENPENKRIAEVLFEGKILARAAGRMEFGQRALGNRSILADPIHLKIKEKINSAIKSRDFWMPFAPVVMDTFVERYLLNPKSLESPHMTLSFDTTEEGYDAMSAACHPADRTARAQILKEHDNPELYSLLKAFQHLTGRGALLNTSFNLHGFPIVNSPSEAVDVLVNSGLDGLILNYFLILKKEGHHHHHH | not soluble
8 | MMRVKFNGKELDTDFKTSLEFFENISKNENDVWIINGFATKENIALNENDELFCIEKNTLPPKDALDAMMRARHTPKLHDKLKNGRVAVCGLGGLGSHIAINLARSGVGYLKLIDFDVIEPSNLNRQAYRVSDLGKFKTEALKEQISEINPYISVEICTLKIDEDNLESLFKDIDIVCEAFDSAIAKAMIAQNFHRFYKDGILICASGLAGYGDSNSIQTRKIAKNFYVCGDLVNGAKLGNGLMAPRVNICAGHQSNLVLELLANKELEHHHHHH | soluble
9 | MSLSNGAPGTRIASAVGAFDVSRRASLTRGAGEAVERFALVPVPADSEHLLARNGSADPQIDFVSAGLGHVSALACDVPWYRAVDLLTGKPTQVPAPVVDYTPGRGESNSWDAFFDPSPNGAASGPSEAFAQTSAIAEVMERDAFLAAWRHKIPLQKFDAKSMPVAVRQGAEARGLSLLLVAARAAGVEPTLAFIPNNGSPLLTAVCIITEEKGPVCYGAVGLKAASDPVSALKGALQEGLQIRELFLTRAHSADPASASPVSAPSVATVTDDDSRAHFWTTAPAIAELRRWVGSFQPSNFPSKQPEPDLDALVKHLAGRNVRSHWVNLTHRLPAAIRELGWVAGKAVCPGAVPLTMDETKELFVMPGSEGHHHHHH | soluble
10 | SLPPLNSLISQFEGRVYDQIINFNWHSKPENLKVIIIDIDEKSLEQEGRWPWPRSKIAELLNKLQENGVVTVGFDIVMSEAETNYALGLIEKLSQFSGKMTTDQKQLIATLNSVANQVDNDQTLVNALGKNNAILGFFFHNSEGIRKGSLPPPLRDTDSNPLLASKLSVYQFTNFNGNLAAFTAAATSGGFVTNLPDKDGVVRHALLLANYKNNLYPSLSLAIAMNYLLTDKVNLKKYNNELTGIELDGLQIPTNRKGQILIPFWGGPGTLNYYSATDILNNQFNPDELAGSIALVGSSITLLSDLHHTPVAQLFPGVEIVGNIVKGLVEQKIPREFDWESLQG | not soluble
11 | MVKLILAEVFNSWQGEGGSVPGSAFGRRQIFVRFAGCDLRCIWCDSSQFIDASKVKKWRIEVEPFSGRFEYRENPASIDEVVDAILKLDTGDLHSISYTGGEPTLQIEGLYILMERMKGLGFDNFLETHGGHPELIKRVSYLTDYASVDIKDESARASRDWRGLVLKEVESIKILKEAGAKVYAKLVVTRETKLENVKWYANLLKGVAPLAIQPKEPMDISMEYLMKLYREAARIMGKKNVGLSFQVHKYLKVL | soluble
12 | MSAKHPIIAVTGSSGAGTTTTSEAFRKMFNMMSIKPAWVEGDSFHRFTRPEMDVEIRKAREQGRHISYFGPQANDFPTLEEFFRQYGKVGTGQVRRYLHTFDEAVPYNQMPGTFTPWQSLPENSDVLFYEGLHGGVVDGDVNVAQHVDFLIGMVPIVNLEWIQKYVRDTRDRGHSREAVMDSIVRSMDDYLKFITPQFSRTHINFQRVPTVDTSNPLNAKGIPTLDESFVVIRFRGIKNVDFPYLLAMIDGSFMSRHNTIVVPGGKMSFAMDLIVRPLLQQLIETGKIG | not soluble
13 | MSLEYKQASIFDNEVKKNKPLADRMRPKTLDEFVGQEHLLGKGKLLRELIEKDNITSMILWGPPGVGKTTLAMIIANMTNSKFITFSAVLSGIKEIKEIMAKAELDAMYGTRTVVFIDEIHRFNKAQQDAFLPHVEKGNIILIGATTENPSFEVNSALLSRSKVFVMKPLTEEDLLILLKRALKDEQNGFGMYKIGITDEQLKKIALFANGDARVALNTLEIAVMGAKVIEGERIVTDDILADAMQKKTLLYDKQGEEHYNLISAFHKSLRNSDWDAAVYWLARMLEAGEDPLYIARRMIRFASEDIGLADPQALEMAVAAYNACHYIGIPECSVNLAQVAIYLALAPKSNAVYMAYNKAKKDAEETIAESVPIHLRNAPTKLMKELGYGKGYKYAHDFEEKVTDMQCLPDNLKDRKYYVPTDSGFEKDIQKRLEQISNLKKKGEGHHHHHH | soluble
14 | MGHHHHHHSHMSTKVPIYLKRGSRKGKKEKLRDLLSSDMISPPLGDFRHTIHIGSGGGSDMFGDISFLQGKFHLLPGTMVEGPEEDGTFDLPFQFTRTATVCGRELPDGPSPLLKNAISLPVIGGPQALTLPTAQAPPKPPRLHLETPQPSPQEGGSVDIWRIPETGSPNSGLTPESGAEEPFLSSASSLLSLHVDLGPSILDDVLQIMDQDLDSMQIPT | soluble
15 | MTLVSQIEAILFVVGEEGIGLEELAYLLEKSTAKTYEELTKLKEHYASDNKSALNILEVGNHFVLTTKKKYASLLKKYAQSPMSNALSQAALETLSIIAYKQPISRIEIDEIRGVQTSGSIQKLVARQLIEEKGRVDGPGRAILYGTTKYFMDYFGLKSLDELPDIQQMEDELEEELPMDLFFDRYQETNPMSETTEGEEA | not soluble
16 | MLEWRGDKYVNGYYPVSSSAPDLLLECISNESKKYLPGELIAVECKWRSTVNFFIPKSDAEKYEKYFRTNKTRYRVKHLFYLFGFGWSDNAPESVYIIPSTALYEYDENTFEITFPNGELIKDKKIRMEDYKMKFKNLIYTVPENRKHLSYQTKSFDTKKKDEPMQR | not soluble
17 | EDPGGITRTKGERVDATVDGLPDGVSPEDAAKFTSVLNKLIKDDPELKKSVEVKTLKAASKTKRTKEVVNWRGGGGFQVAHLSPACFDYDPALDRVMLTAAATGETLIESVAANLGFTLLHPDDDYVFDARRGNALLKVVEGVATPQIVDWLASQIQPGETIVLAATTVMDGVRQHLRKAVKGSRVVALPDDIFRYSEGGNK | not soluble
18 | YLYLEITNRCNLKCEMCFKQYWEDKEGDMDWDLFLKILDDAKEFPELKMIYFGGIGEPSVHPRFMDMVREVKRRGFRLGMSTNGVLLEDKILEEFVKLGVDVVYFSMDAIPTPSNIVTLGHITSKVVESRIKKLVELKKRYKTEKPTIGVEVVATKENYKQLPEMAIYLRNLGVDSMLISNLIPMTKEH | not soluble
19 | MGSDKIHHHHHHMQNPPPPFNQNHLLAALPPAELERLKPHLELVHMPLGDVLCESGGRLSYVYFPTSAIISLHYILENGSSSEVAGVGNEGLLGISLFMGGENTPTWATVQTAGYCYRLKGPLLLQEFNQGGPLQRVLLRYTQALITQISQTAVCNRHHTIEQQLCRWLLLTLDRLNSQELVMTQELIASMLGVRREGITEAAGKLQQAEIIRYRRGHITVLNRAGLEGHVCECYEVVKKEFERLFRDVKKS | not soluble
